In publication doi:10.1101/808618 (bioRxiv, 2020):
Changes are numbered by the printed parent chain. Names may count otherwise.

B1: PfGMPS_E555L (enzyme, Plasmodium falciparum)
chain: MEGEEYDKILVLNFGSQYFHLIVKRLNNIKIFSETKDYGVELKDIKDMNIKGVILSGGPYSVTEAGSPHLKKEVFEYFLEKKIPIFGICYGMQEIAVQMNGEVKKSKTSEYGCTDVNILRNDNINNITYCRNFGDSSSAMDLYSNYKLMNETCCLFENIKSDITTVWMNHNDEVTKIPENFYLVSSSENCLICSIYNKEYNIYGVQYHPEVYESLDGELMFYNFAYNICKCKKQFDPIRYHELELKNIEKYKHDHYVIAAMSGGIDSTVAAAYTHKIFKERFFGIFIDNGLLRKNEAENVYTFLKSTFPDMNITKIDASENFLSNLQGVTDPEQKRKIIGKLFIEEFEKAVNNIDIDINKTFLLQGTLYPDIIESKCSKNLSDTIKTHHNVGGLPKNLKFKLFEPFKYLFKDDVKTLSRELNLPEEITNRHPFPGPGLAIRVIGEINKHKLNILREVDDIFINDLKQYGLYNQISQAFAVLLSSKSVGVRGDARSYDYVCVLRAVKTSSFMTANWYQIPYDILDKITTRILSEVKGVNRILYDVSSKPPATIEFL
B2: PfGMPS_H388A (enzyme, Plasmodium falciparum)
chain: B1 chain with H388A, L555E
B3: PfGMPS_E213A (enzyme, Plasmodium falciparum)
chain: B1 chain with E213A, L555E
B4: PfGMPS K160L (enzyme, Plasmodium falciparum)
chain: B1 chain with K160L, L555E
B5: PfGMPS K376L (enzyme, Plasmodium falciparum)
chain: B1 chain with K376L, L555E
B6: PfGMPS_K386L (enzyme, Plasmodium falciparum)
chain: B1 chain with K386L, L555E
B7: PfGMPS_K24L (enzyme, Plasmodium falciparum)
chain: B1 chain with K24L, L555E
B8: PfGMPS_T387A (enzyme, Plasmodium falciparum)
chain: B1 chain with T387A, L555E
B9: PfGMPS R25L (enzyme, Plasmodium falciparum)
chain: B1 chain with R25L, L555E

Target: the molecule itself
Assay: SEC
B1: binds. B2: binds. B3: binds. B4: binds. B5: binds. B6: binds. B7: binds. B8: binds. B9: binds.
